# Measured values as given in PMC6363478.
# Target: rat EMILIN1 C-terminus fusion protein in pRSET-A (REM) (rat)
# Assay: SPR
substance,measurement,value
rat organ of Corti CNGA3 C-terminus fusion protein in pRSET-A (RA3-C) (domain or fragment),Kd,0.27 µM
